The Km is the concentration of substrate that gives half-maximal velocity. Usually kcat stands for the number of substrate molecules converted per active site and unit of time at saturation.

For one data set, the system named is [O-][n+]1cccnc1. In words: purified protein. Particulars: purified enzyme, 0.2 mM methyl viologen, 0.3 mM dithionite, 20 mM sodium phosphate pH 6.8, 37°C.
A further data set deals with NC(=O)c1ccc[n+]([O-])c1. Kind of data set: purified protein. Particulars: purified enzyme, 0.2 mM methyl viologen, 0.3 mM dithionite, 20 mM sodium phosphate pH 6.8, 37°C.

Consider “MtsZ (HiMtsZ) (Haemophilus influenzae Rd KW20)”, for which, in data set [O-][n+]1cccnc1, the Michaelis constant (Km) amounted to 35 ± 8 µM and the kcat turned out to be 33.2 ± 2.7 s⁻¹. In addition, in the data set on NC(=O)c1ccc[n+]([O-])c1, the Km was 46 ± 8 µM and the catalytic constant (kcat) was 93 ± 5 s⁻¹.

These data come from paper PMC11024254, “The DmsABC S-oxide reductase is an essential component of a novel, hypochlorite-inducible system of extracellular stress defense in Haemophilus influenzae” (Frontiers in Microbiology, 2024).
